# Results reported in the supplement of paper PMC9233669.
# This sample holds only a part of the variants without activity.
# Assays:
# [1] = system: biotinyl-Ile-oxazolone; test: self-aminoacylation, catalytic enhancement (BIO) (fold over background); higher = more active; k-Seq, kA / k0A0; sequences stand for … in GGGAAUGGAUCCACAUCUACGAAUUC…UUCACUGCAGACUUGACGAAGCUG
# Outline: (§1)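 Each biotinyl-aminoacyl-oxazolone, at 2–1250 μM, was incubated with mutagenized RNA pools (0.43 μM) carrying a 21-nt variable region. The 50 μL reactions contained HEPES/NaCl/KCl/MgCl2/CaCl2 buffer with 5% acetonitrile at pH 6.9–7.0 and ran for 90 minutes at room temperature. After streptavidin capture, RNA was measured by qPCR in triplicate and by Illumina sequencing, and catalytic enhancement was calculated as median kA over the uncatalyzed rate from a pseudo-first-order fit of per-sequence fraction reacted.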
# [2] = system: biotinyl-Leu-oxazolone; test: self-aminoacylation, catalytic enhancement (BLO) (fold over background); higher = more active; k-Seq, kA / k0A0; sequences stand for … in GGGAAUGGAUCCACAUCUACGAAUUC…UUCACUGCAGACUUGACGAAGCUG
# Outline: as §1
# [3] = system: biotinyl-Trp-oxazolone; test: self-aminoacylation, catalytic enhancement (BWO) (fold over background); higher = more active; k-Seq, kA / k0A0; sequences stand for … in GGGAAUGGAUCCACAUCUACGAAUUC…UUCACUGCAGACUUGACGAAGCUG
# Outline: as §1
# [4] = system: biotinyl-Met-oxazolone; test: self-aminoacylation, catalytic enhancement (BMO) (fold over background); higher = more active; k-Seq, kA / k0A0; sequences stand for … in GGGAAUGGAUCCACAUCUACGAAUUC…UUCACUGCAGACUUGACGAAGCUG
# Outline: as §1
# [5] = system: biotinyl-Phe-oxazolone; test: self-aminoacylation, catalytic enhancement (BFO) (fold over background); higher = more active; k-Seq, kA / k0A0; sequences stand for … in GGGAAUGGAUCCACAUCUACGAAUUC…UUCACUGCAGACUUGACGAAGCUG
# Outline: as §1
# [6] = system: biotinyl-Val-oxazolone; test: self-aminoacylation, catalytic enhancement (BVO) (fold over background); higher = more active; k-Seq, kA / k0A0; sequences stand for … in GGGAAUGGAUCCACAUCUACGAAUUC…UUCACUGCAGACUUGACGAAGCUG
# Outline: as §1
sequence,measurement,setting,value
AACUUUGCUCAUAGUCGCAAG [Fam3.1 aminoacylation ribozyme variant],self-aminoacylation,[1],2.01
same,self-aminoacylation,[2],2.47
same,self-aminoacylation,[3],2.34
same,self-aminoacylation,[4],2
same,self-aminoacylation,[5],10.8
AAGCUUGUUAAUAGUCGCAAG [Fam3.1 aminoacylation ribozyme variant],self-aminoacylation,[1],2.21
same,self-aminoacylation,[2],2.38
same,self-aminoacylation,[3],2.3
same,self-aminoacylation,[4],2.26
same,self-aminoacylation,[5],3.63
AAGUUCGCUAAUAGUCGCAAA [Fam3.1 aminoacylation ribozyme variant],self-aminoacylation,[1],2.49
same,self-aminoacylation,[2],2.63
same,self-aminoacylation,[3],2.76
same,self-aminoacylation,[4],2.01
same,self-aminoacylation,[5],4.42
AAGUUCGCUAAUAGUCGCAAU [Fam3.1 aminoacylation ribozyme variant],self-aminoacylation,[6],2.03
same,self-aminoacylation,[3],2.44
same,self-aminoacylation,[4],2.1
same,self-aminoacylation,[5],3.19
AAUACCCUGUUCAUCGAGUGA [Fam2.1 aminoacylation ribozyme variant],self-aminoacylation,[6],2.14
same,self-aminoacylation,[2],3.46
same,self-aminoacylation,[3],4.5
same,self-aminoacylation,[4],3
same,self-aminoacylation,[5],9.83
AAUUUAGCUAAUAGUCGCAAG [Fam3.1 aminoacylation ribozyme variant],self-aminoacylation,[1],2.02
same,self-aminoacylation,[5],2.58
AAUUUUACUAAUAGUCGCAAG [Fam3.1 aminoacylation ribozyme variant],self-aminoacylation,[1],2.01
same,self-aminoacylation,[5],2.67
ACUACCCUCGUCAUCGAGUGA [Fam2.1 aminoacylation ribozyme variant],self-aminoacylation,[6],2.32
same,self-aminoacylation,[2],3.13
same,self-aminoacylation,[3],2.14
same,self-aminoacylation,[4],2.71
same,self-aminoacylation,[5],4.34
AGGUUUGCCAAUAGUCGCAAG [Fam3.1 aminoacylation ribozyme variant],self-aminoacylation,[1],2.1
same,self-aminoacylation,[2],2.31
same,self-aminoacylation,[3],3.7
same,self-aminoacylation,[4],2.31
same,self-aminoacylation,[5],9.52
AGUCACCUAGGUCAUCAGGUG [Fam2.2 aminoacylation ribozyme variant],self-aminoacylation,[6],2.09
same,self-aminoacylation,[2],2.1
same,self-aminoacylation,[5],8.84
AUUACCCUGGUCGUCCAGUGA [Fam2.1 aminoacylation ribozyme variant],self-aminoacylation,[2],2.88
same,self-aminoacylation,[3],3.21
same,self-aminoacylation,[4],2.68
same,self-aminoacylation,[5],11.1
AUUACCCUGGUCUGCGAGUGA [Fam2.1 aminoacylation ribozyme variant],self-aminoacylation,[2],2.72
same,self-aminoacylation,[3],2.62
same,self-aminoacylation,[4],2.15
same,self-aminoacylation,[5],9.18
AUUACCCUGUUCAUCGAGUGU [Fam2.1 aminoacylation ribozyme variant],self-aminoacylation,[6],2.02
same,self-aminoacylation,[2],2.1
same,self-aminoacylation,[3],3.95
same,self-aminoacylation,[4],2.84
AUUACUCUGGUCAUCAAGUGA [Fam2.1 aminoacylation ribozyme variant],self-aminoacylation,[2],2.29
same,self-aminoacylation,[3],3.07
same,self-aminoacylation,[4],2.47
same,self-aminoacylation,[5],4.38
AUUAGCCUGGUCAUCGAGUGG [Fam2.1 aminoacylation ribozyme variant],self-aminoacylation,[2],2.35
same,self-aminoacylation,[3],3.05
same,self-aminoacylation,[4],2.81
same,self-aminoacylation,[5],2.98
AUUCACCAAGGUCAUCGGGGG [Fam2.2 aminoacylation ribozyme variant],self-aminoacylation,[1],2.02
same,self-aminoacylation,[2],2.72
same,self-aminoacylation,[3],2.91
same,self-aminoacylation,[4],2.23
same,self-aminoacylation,[5],11.9
AUUCACCCAGGUCAUCGGGUU [Fam2.2 aminoacylation ribozyme variant],self-aminoacylation,[6],2.14
same,self-aminoacylation,[2],2.65
same,self-aminoacylation,[4],2.16
same,self-aminoacylation,[5],6.46
AUUCACCGAGGUCAUCGGUUG [Fam2.2 aminoacylation ribozyme variant],self-aminoacylation,[2],4.89
same,self-aminoacylation,[3],2.6
same,self-aminoacylation,[4],3.52
same,self-aminoacylation,[5],29
AUUCACCUAAUUCAUCGGGUG [Fam2.2 aminoacylation ribozyme variant],self-aminoacylation,[2],3.05
same,self-aminoacylation,[3],3.32
same,self-aminoacylation,[4],2.68
same,self-aminoacylation,[5],15.5
AUUCACCUAGCUGAUCGGGUG [Fam2.2 aminoacylation ribozyme variant],self-aminoacylation,[6],2.63
same,self-aminoacylation,[1],2.29
same,self-aminoacylation,[2],2.82
same,self-aminoacylation,[5],8.31
AUUCACCUAGGACAUCGGGGG [Fam2.2 aminoacylation ribozyme variant],self-aminoacylation,[6],2.18
same,self-aminoacylation,[2],2.63
same,self-aminoacylation,[4],3.13
same,self-aminoacylation,[5],10.4
AUUCACCUAGGUAACCGGGUG [Fam2.2 aminoacylation ribozyme variant],self-aminoacylation,[2],2.85
same,self-aminoacylation,[3],2.56
same,self-aminoacylation,[4],2.57
same,self-aminoacylation,[5],11
AUUCACCUAGGUCAUCGCGUC [Fam2.2 aminoacylation ribozyme variant],self-aminoacylation,[6],2.15
same,self-aminoacylation,[3],2.85
same,self-aminoacylation,[4],2.3
same,self-aminoacylation,[5],9.82
AUUCACCUCGGUCAUCGAGUG [Fam2.2 aminoacylation ribozyme variant],self-aminoacylation,[2],2.88
same,self-aminoacylation,[3],2.51
same,self-aminoacylation,[4],2.33
same,self-aminoacylation,[5],13.1
AUUCACCUGGGUCAUCGGCUG [Fam2.2 aminoacylation ribozyme variant],self-aminoacylation,[6],2.54
same,self-aminoacylation,[1],2.01
same,self-aminoacylation,[2],2.27
same,self-aminoacylation,[5],8.1
CAACUUCAAACAAUCGGGCUG [Fam1A.1 aminoacylation ribozyme variant],self-aminoacylation,[6],2.25
same,self-aminoacylation,[1],2.18
same,self-aminoacylation,[2],2.58
same,self-aminoacylation,[3],20.1
same,self-aminoacylation,[5],23.8
CCACAACUCAAGCAAUCGGUC [Fam1B.1 aminoacylation ribozyme variant],self-aminoacylation,[6],2.23
same,self-aminoacylation,[5],2.62
CCACACGUCAAGCAAUCCGUC [Fam1B.1 aminoacylation ribozyme variant],self-aminoacylation,[6],2.22
same,self-aminoacylation,[3],2.45
CCACACUCCAAGCAUUCGGUC [Fam1B.1 aminoacylation ribozyme variant],self-aminoacylation,[6],2.83
CCACACUGCAAGCAAUCGGGC [Fam1B.1 aminoacylation ribozyme variant],self-aminoacylation,[6],2.56
same,self-aminoacylation,[3],3
CCACACUUCAAGCAAUGGGCC [Fam1B.1 aminoacylation ribozyme variant],self-aminoacylation,[6],2.81
CCACACUUCAAGCAGUCGGGC [Fam1B.1 aminoacylation ribozyme variant],self-aminoacylation,[6],2.36
same,self-aminoacylation,[1],2.15
same,self-aminoacylation,[2],2.19
same,self-aminoacylation,[4],2.5
CCACACUUCAAGCCAUCGGUU [Fam1B.1 aminoacylation ribozyme variant],self-aminoacylation,[6],2.18
same,self-aminoacylation,[3],2.06
same,self-aminoacylation,[5],2.81
CCACACUUGAAGCAAUCGGCC [Fam1B.1 aminoacylation ribozyme variant],self-aminoacylation,[6],3.19
same,self-aminoacylation,[2],2.24
same,self-aminoacylation,[3],2.29
CCAGACUUCAAGCAAUCGGGC [Fam1B.1 aminoacylation ribozyme variant],self-aminoacylation,[6],3.13
same,self-aminoacylation,[1],2.71
same,self-aminoacylation,[2],2.69
same,self-aminoacylation,[3],3.72
CCCCACUCCAAGCAAUCGGUC [Fam1B.1 aminoacylation ribozyme variant],self-aminoacylation,[6],2.19
same,self-aminoacylation,[3],6.53
same,self-aminoacylation,[5],8.62
CCCCACUUCAAGCAGUCGGUC [Fam1B.1 aminoacylation ribozyme variant],self-aminoacylation,[6],2.23
same,self-aminoacylation,[2],2.2
same,self-aminoacylation,[3],3.29
same,self-aminoacylation,[5],3.77
CCCCACUUCGAGCAAUCGGUC [Fam1B.1 aminoacylation ribozyme variant],self-aminoacylation,[6],2.51
same,self-aminoacylation,[1],2.2
same,self-aminoacylation,[2],2.16
same,self-aminoacylation,[3],4.05
same,self-aminoacylation,[5],5.48
CCCCAUUUCAAGCAAUCGGUC [Fam1B.1 aminoacylation ribozyme variant],self-aminoacylation,[6],2.07
same,self-aminoacylation,[1],2.26
same,self-aminoacylation,[3],7.54
same,self-aminoacylation,[5],9.72
CCGCACCUCAAGCAAUCGGUC [Fam1B.1 aminoacylation ribozyme variant],self-aminoacylation,[6],2.16
same,self-aminoacylation,[3],5.62
same,self-aminoacylation,[5],6.19
CCGCUUCAAACAAUCGGUCUG [Fam1A.1 aminoacylation ribozyme variant],self-aminoacylation,[6],2.4
same,self-aminoacylation,[2],4.82
same,self-aminoacylation,[3],95.9
same,self-aminoacylation,[4],2.68
same,self-aminoacylation,[5],257
CUACUUCAAACAAUCGGCCGG [Fam1A.1 aminoacylation ribozyme variant],self-aminoacylation,[1],2.09
same,self-aminoacylation,[5],2.44
CUUACCCUGCUCAUCGAGUGA [Fam2.1 aminoacylation ribozyme variant],self-aminoacylation,[2],2.19
same,self-aminoacylation,[3],2.2
same,self-aminoacylation,[4],2.57
same,self-aminoacylation,[5],2.86
CUUACCCUGGUCAUCGAGGGA [Fam2.1 aminoacylation ribozyme variant],self-aminoacylation,[6],2.04
CUUACCCUGGUCAUCGAGUGC [Fam2.1 aminoacylation ribozyme variant],self-aminoacylation,[2],3.18
same,self-aminoacylation,[3],3.03
same,self-aminoacylation,[4],2.91
same,self-aminoacylation,[5],4.77
GAGUUUGCUAAUAGUCGCAAU [Fam3.1 aminoacylation ribozyme variant],self-aminoacylation,[1],2.21
same,self-aminoacylation,[3],3.41
same,self-aminoacylation,[5],2.19
UUUACCCUGGUCAUCGAGGGA [Fam2.1 aminoacylation ribozyme variant],self-aminoacylation,[6],2.19
same,self-aminoacylation,[3],2.85
same,self-aminoacylation,[5],3.55
